Results taken from US20190218302A1, “ANTI-CANCER COMBINATION TREATMENT” (PROBIOCON GMBH, priority 2016, published 2019).

Key:
[1] = test system: RANK expressing PBMC of a patient suffering from AML (94% blasts); assay: Chemotherapy resistance model, PBMC of an AML patient, flow cytometry (7AAD and Annexin-V-PE); type: cell-based, human
Method: FIG. 1: RANKL mediates resistance of malignant cells to chemotherapeutic treatment. Blood of a patient suffering from acute myeloid leukemia (AML) containing 94% blasts (leukemic cells) was obtained at time of diagnosis prior to treatment and peripheral blood mononuclear cells (PBMC) were isolated by density gradient centrifugation. PBMC were cultured in the presence or absence of doxorubicin (dox, 1 μM) and/or soluble RANKL (sRANKL, 500 ng/ml) as indicated.
RANK expressing PBMC of a patient suffering from AML (French-American-British (FAB) classification: M4; 94% peripheral blood blasts) were subjected to a model of chemotherapyresistance (FIG. 1). To this end, patient blood was obtained at time of diagnosis prior to treatment and PBMC were isolated by density gradient centrifugation. […] Since AML cells of the FAB type M4 resemble monocyte-like cells, this experiment is in line with studies in healthy monocytes showing that sRANKL (Seshasayee et al. 2004, Jour Biol Chem, 279(29):30202-9) acts as a pro-survival factor, likely due to upregulation of anti-apoptotic BCL-2 proteins.

[2] = test system: MCF10A breast cancer cells; assay: MCF10A breast cancer cells with sRANKL, Denosumab and paclitaxel, flow cytometry with 7AAD; type: cell-based, human; details: 48 h, paclitaxel 10 nM added after 24 h
Method: FIG. 2: Blockade of RANKL by Denosumab overcomes resistance to chemotherapeutic treatment. MCF10A breast tumor cells were cultured for 48 h in the presence or absence of sRANKL (100 ng/ml) and/or Denosumab (20 μg/ml) as indicated. After the first 24 h of culture, paclitaxel (10 nM) was added where indicated. Then the percentage of living and dead cells was determined using flow cytometry with 7AAD.
To this end, it was evaluated if RANKL-induced chemoresistance could be overcome by application of a RANKL-inhibitor in the form of the approved RANKL antibody Denosumab. Therefore, MCF10A breast cancer cells were cultured for 48 h in the presence or absence of sRANKL (100 ng/ml, Immunotools) and Denosumab (20 μg/ml, Amgen) as indicated. After 24 h of culture, paclitaxel (10 nM, Taxomedac) representing a first line breast cancer therapeutic agent, was added where indicated.

[3] = test system: MCF10A breast cancer cells; assay: Viability of tumor cells cultured with platelets and Denosumab, ATP content (CellTiter-Glo); type: cell-based, human; details: platelets plus Denosumab, 96 h; paclitaxel for the last 24 h
Method: (§1) A2780 ovarian cancer cells (left) and MCF10A breast cancer cells (right) were employed as model to study the influence of RANKL and its neutralization on chemotherapy resistance. To this end, 30,000 tumor cells were cultured in the presence or absence of platelets and Denosumab for 96 h. The indicated concentrations of doxorubicin (left) or paclitaxel (right) were added for the last 24 h. Then cell viability was determined by analysis of ATP content of each sample (CellTiter-Glo assay, Promega). Values obtained with untreated tumor cells were set to 1.
(§2) To assess the role of pRANKL in the context of systemic treatment, the viability of ovarian and breast cancer cells was analyzed. Cells were incubated with human platelets in the presence or absence of Denosumab to neutralize pRANKL which mimics the situation in cancer patients. Presence of platelets enhanced the viability/cellular activity of tumor cells already without chemotherapeutic treatment, and the same was observed upon chemotherapeutic treatment.

[4] = test system: A2780 ovarian cancer cells; assay: as above; type: cell-based, human; details: platelets plus Denosumab, 96 h; doxorubicin for the last 24 h
Method: as §1, §2

melanoma metastasis = details: Jones et al., Nature 2006, cited from earlier work
[5] = test system: SKBR3 breast cancer cell line; details: Schramek et al., Nature 2010; cited from earlier work

COc1cccc2c1C(=O)c1c(O)c3c(c(O)c1C2=O)C[C@@](O)(C(=O)CO)C[C@@H]3O[C@H]1C[C@H](N)[C@H](O)[C@H](C)O1 [doxorubicin, reference compound]
percentage of early apoptotic and dead cells compared to the control group ([1]; doxorubicin 1 μM, 48 h of treatment): greatly enhanced
amount of viable AML cells ([1]; ex vivo cancer cell assay, doxorubicin applied): reduced

Denosumab: fully human IgG2 monoclonal antibody specific to RANKL (Amgen); heavy chain SEQ ID 1, light chain SEQ ID 2
effects of chemotherapeutic treatment upon RANKL neutralization (chemosensitivity) ([2]; Denosumab 20 μg/ml with sRANKL 100 ng/ml): restores and even increases the effects of chemotherapeutic treatment
protective effect of platelets on tumor cell viability [3]: substantially reduced
protective effect of platelets on tumor cell viability [4]: substantially reduced

B1: osteoprotegerin: used for in vivo neutralization of RANKL in a mouse model of melanoma metastasis (protein, UniProt O00300 22-401, looked up)
Tumor necrosis factor …: ETFPPKYLHYDEETSHQLLCDKCPPGTYLKQHCTAKWKTVCAPCPDHYYTDSWHTSDECLYCSPVCKELQYVKQECNRTHNRVCECKEGRYLEIEFCLKHRSCPPGFGVVQAGTPERNTVCKRCPDGFFSNETSSKAPCRKHTNCSVFGLLLTQKGNATHDNICSGNSESTQKCGIDVTLCEEAFFRFAVPTKFTPNWLSVLVDNLPGTKVNAESVERIKRQHSSQEQTFQLLKLWKHQNKDQDIVKKIIQDIDLCENSVQRHIGHANLTFEQLRSLMESLPGKKVGAEDIEKTIKACKPSDQILKLLSLWRIKNGDQDTLKGLMHALKHSKTYHFPKTVTQSLKKTIRFLHSFTMYKLYQKLFLEMIGNQVQSVKISCL
protection from paralysis (melanoma metastasis): complete protection from paralysis
tumor burden in bones (melanoma metastasis; in bones, but not in other organs): marked reduction in tumor burden in bones

B2: sRANKL: recombinant human soluble RANKL, Immunotools, Germany (protein)
chain: EKAMVDGSWLDLAKRSKLEAQPFAHLTINATDIPSGSHKVSLSSWYHDRGWAKISNMTFSNGKLIVNQDGFYYLYANICFRHHETSGDLATEYLQLMVYVTKTSIKIPSSHTLMKGGSTKYWSGNSEFHFYSINVGGFFKLRSGEEISIEVSNPSLLDPDQDATYFGAFKVRDID
protection of malignant cells from the effects of chemotherapeutic treatment ([2]; sRANKL 100 ng/ml): protects the malignant cells from the effects of chemotherapeutic treatment
protection from apoptosis induced by doxorubicin [5]: protects the SKBR3 breast cancer cell line from apoptosis induced by doxorubicin
effect of doxorubicin on the amount of viable AML cells in the presence of sRANKL ([1]; ex vivo cancer cell assay, doxorubicin plus sRANKL): neutralized
effect of chemotherapeutic treatment when sRANKL was added ([1]; sRANKL 500 ng/ml added to doxorubicin 1 μM, 48 h): markedly reduced
